Experimental data taken from patent US20080220446A1, “Method for Detecting and/or Removing Protein and/or Peptide Comprising a Cross-Beta Structure From an Aqueous Solution Comprising a Protein” (priority 2005, published 2008).

Assays:
[1] = target: T1, tPA (Homo sapiens, UniProt P00750); assay: tPA/plasminogen activation assay; type: biochemical; conditions: % of standardized positive control; 1:10 diluted samples
Protocol: (§1) β2-GPI was reduced and alkylated as follows. Sixhundredforty μl of β2-GPI stock was mixed with 640 μl of 8 M Urea (cooled solution) in 0.1 M Tris pH-8.2. The solution was degassed with N2 gas for approximately 6 minutes. From a 1 M DTT stock 12.8 μl was added to the solution, mixed and incubated for 3 hours at room temperature. A 1 M Iodoacetamide (Sigma; I-6125) was prepared, of which 25.6 μl was added to the β2-GPI reaction mixture. The solution was subsequently dialysed against PBS. […] Signals obtained with alkyl-β2gpi are compared with those obtained with native β2gpi starting material and with positive control acid/heat denatured amyloid-like misfolded γ-globulins.
Exiqon Peptide Immobilizer plates were blocked for 1 hour with PBS, 1% Tween20 and rinsed twice with distilled water. The conversion of the chromogenic substrate S-2251 (Chromogenix, Italy) by plasmin was kinetically measured at 37° C. on a Spectramax340 microplate reader at a wavelength of 405 nm. […] Denatured γ-globulins (100 μg/ml) with amyloid-like structure was used as reference and positive control. Lyophilized γ-globulins (Sigma, Mo., USA) were dissolved in a 1(:)1 volume ratio of 1,1,1,3,3,3-hexafluoro-2-propanol and trifluoro-acetic acid and subsequently dried under air. Dried γ-globulins was dissolved in H2O to a final concentration of 1 mg/ml and kept at room temperature for at least three days and subsequently stored at −20° C.
(§2) Protein therapeutics were obtained from the local hospital pharmacy and analyzed within the expiry limits as stated by the manufacturers.

[2] = ThT fluorescence enhancement by biopharmaceuticals; type: physicochemical; conditions: +/− SD; five μL of protein therapeutic
Protocol: (§3) Fluorescence of ThT—protein/peptide adducts was measured as follows. […] Fluorescence was measured at 485 nm upon excitation at 435 nm. Background signals from buffer, buffer with ThT and protein/peptide solution without ThT were subtracted from corresponding measurements with protein solution incubated with ThT. Regularly, fluorescence of Aβ was used as a positive control, and fluorescence of FP10, a non-amyloid fibrin fragment^16, was used as a negative control. Fluorescence was measured in triplicate on a Hitachi F-4500 fluorescence spectrophotometer (Ltd., Tokyo, Japan).
as §1, §2
(§4) Fluorescence of Thioflavin T (ThT; Sigma T-3516, St. Louis, Mo., USA) and Congo red (CR; Aldrich Chemical Company Inc., Milwaukee, Wis., USA) was measured on a Hitachi F-4500 spectrophotometer at an excitation wavelength of 435 nm and emission wavelength of 485 nm for ThT and an excitation wavelength of 550 nm and emission wavelength of 595 nm for Congo red. […] Fluorescence was measured in triplicate. Background fluorescence of both protein in buffer and dye-solution were subtracted from the total fluorescence signal. Five μg/mL fibrillar amyloid-β(1-40) E22Q (Peptide Synthesis Facility of the Dutch Cancer Institute NKI, Amsterdam, The Netherlands) was used as a positive control in all fluorescence assays.

[3] = Thioflavin T fluorescence of protein solutions; type: physicochemical
Protocol: as §3
(§5) Formulated protein therapeutics were obtained from the local hospital pharmacy and were used as supplied by the manufacturers. […] Lyophilized therapeutics were dissolved according to the manufacturers recommendations. GH, zinc-insulin, Cealb and gelatin were stored at −20, 4, room temperature, 37 and 65° C. Other protein therapeutics were only kept at 4° C., and assayed for the presence of cross-β structure at shown time points. Enhancement in fluorescence of ThT and Congo red was measured with all formulated protein therapeutics. For this purpose, proteins were diluted to the indicated concentrations. […] Zinc-insulin was diluted tenfold in the activation assay, GH was diluted to a final concentration of 500 μg ml^−1. Activation of factor XII and prekallikrein by the therapeutics was tested in the chromogenic factor XII assay (see above). […] After coating, plates were blocked with Blocking Reagent (Roche Diagnostics, Almere, The Netherlands).
ThT fluorescence of β2GPI was measured as follows. […] CL vesicles were prepared according to an established procedure. Briefly, CL was dried under a stream of nitrogen. The lipids were resuspended to a concentration of 10 mg ml^−1 in 25 mM Tris-HCl, pH 7.3, 150 mM NaCl by vigorous agitation, using a vortex. In the ThT fluorescence assay, fluorescence of β2GPI in buffer, of CL or DXS500k in buffer, of buffer and ThT alone, and of β2GPI-CL adducts and β2GPI-DXS500k adducts, with or without ThT, was recorded as described above (section ThT fluorescence). In addition, TEM images were recorded with CL, β2GPI from human plasma, with or without CL, and with recombinant β2GPI, as described^5.
(§6) To prepare structurally altered ovalbumin (OVA) with amyloid cross-β structures, purified OVA (Sigma, A-7641, lot 071k7094) was heated to 85° C. One mg ml^−1 OVA in 67 mM NaPi buffer pH 7.0, 100 mM NaCl, was heated for two cycles in PCR cups in a PTC-200 thermal cycler (MJ Research, Inc., Waltham, Mass., USA). In each cycle, OVA was heated from 30 to 85° C. at a rate of 5° C./min. Native OVA (nOVA) and heat-denatured OVA (dOVA) were tested in the ThT fluorescence assay and in the Plg-activation assay. In the fluorescence assay and in the Plg-activation assay, 25 and 100 μg ml^−1 nOVA and dOVA were tested, respectively. TEM images of nOVA and dOVA were taken to check for the presence of large aggregates.
MSA (#126674, Calbiochem) was dissolved in 8 M urea, 100 mM Tris-HCl pH 8.2, at 10 mg ml^−1 final concentration. Dithiothreitol (DTT) was added to a final concentration of 10 mM. Air was replaced by N2 and the solution was incubated for 2 h at room temperature. Then, the solution was transferred to ice and iodoacetamide was added from a 1 M stock to a final concentration of 20 mM. […] In the ThT-fluorescence assay 25 μg ml^−1 nMSA and alkyl-MSA were tested, and in the Plg-activation assay 100 μg ml^−1 was tested. The presence of aggregates or fibrils was analyzed using TEM. […]

[4] = target: T1, tPA; assay: Plasminogen-activation assay (tPA activation, S-2251); type: biochemical; conditions: for tPA activating potential: Example 4, native, heat-denatured or alkylated preparation as labelled
Protocol: Plasmin (Pls) activity was assayed as described^16. Peptides and proteins that were tested for their stimulatory ability were regularly used at 100 μg ml^−1. […] Chromogenic substrate S-2251 (Chromogenix, Instrumentation Laboratory SpA, Milano, Italy) was used to measure Pls activity. Conversion of zymogen factor XII (#233490, Calbiochem, EMD Biosciences, Inc., San Diego, Calif.) to proteolytically active factor XII (factor XIIa) was assayed by measurement of the conversion of chromogenic substrate Chromozym-PK (Roche Diagnostics, Almere, The Netherlands) by kallikrein. Chromozym-PK was used at a concentration of 0.3 mM. Factor XII, human plasma prekallikrein (#529583, Calbiochem) and human plasma cofactor high-molecular weight kininogen (#422686, Calbiochem) were used at concentrations of 1 μg ml^−1. […] Assays were performed using microtiter plates (Costar, Cambridge, Mass., USA). Peptides and proteins were tested for their ability to activate factor XII. 150 μg ml^−1 kaolin, an established activator of factor XII was used as positive control and solvent (H2O) as negative control. The conversion of Chromozym-PK was recorded kinetically at 37° C. for at least 60 minutes. Assays were done in duplicate.
as §5, §6
MSA (#126674, Calbiochem) was dissolved in 8 M urea, 100 mM Tris-HCl pH 8.2, at 10 mg ml^−1 final concentration. Dithiothreitol (DTT) was added to a final concentration of 10 mM. Air was replaced by N2 and the solution was incubated for 2 h at room temperature. Then, the solution was transferred to ice and iodoacetamide was added from a 1 M stock to a final concentration of 20 mM. […] Alkyl-MSA was dialyzed against H2O before use. […] In the ThT-fluorescence assay 25 μg ml^−1 nMSA and alkyl-MSA were tested, and in the Plg-activation assay 100 μg ml^−1 was tested. The presence of aggregates or fibrils was analyzed using TEM.
Lyophilized sterile glucagon was dissolved at 1 mg ml^−1 in H2O with 10 mM HCl. The solution was subsequently kept at 37° C. for 24 h, at 4° C. for 14 days and again at 37° C. for 9 days. […] TEM analysis was performed to assess the presence of large multimeric structures.

[5] = Stability testing of biopharmaceuticals under denaturing conditions; type: physicochemical; conditions: after exposure to harsh denaturing conditions (low pH or heat)
Protocol: For this purpose, 5 mg/mL Glucagon (Glucagen; Novo Nordisk Farma B. V., Alphen aan de Rijn, The Netherlands) was incubated at 37° C. in 0.01 M HCl for 48 hours. One mg/mL Etanercept (Enbrel; Wyeth Pharmaceuticals B. V., Hoofddorp, The Netherlands) in 67 mM sodium phosphate buffer, 100 mM NaCl pH 7.0 was gradually heated from 30° C. to 85° C. over a period of 12 minutes and afterwards cooled to 4° C. for 5 minutes, this treatment was repeated 4 times. Abciximab (Reopro; Centocor B. V., Leiden, The Netherlands) and Infliximab (Remicade; Schering-Plough B. V., Utrecht, The Netherlands) were incubated at 65° C. for 16 and 72 hours, respectively.

[6] = Congo red fluorescence enhancement by biopharmaceuticals; type: physicochemical; conditions: +/− SD; five μL of protein therapeutic
Protocol: Background signals from buffer, buffer with Congo red and protein/peptide solution without Congo red were subtracted from corresponding measurements with protein solution incubated with Congo red. Fluorescence was measured in triplicate on a Hitachi F-4500 fluorescence spectrophotometer (Ltd., Tokyo, Japan).
as §2, §4

[7] = target: T1, tPA; assay: tPA binding assay with immobilized biopharmaceuticals in an ELISA; conditions: coated 1:10, one-site binding model
Protocol: Plates were washed twice with Tris buffered saline pH 7.2 containing 0.1% Tween20 (TBST) and blocked with PBS containing 1% Tween20 for 1 hour at room temperature. […] Plates were washed five times with TBST and incubated with peroxidase labeled anti-mouse immunoglobulins (RAMPO; DAKOCytomation, Glostrup, Denmark) diluted 1:3000 in PBST for 30 minutes at room temperature. Plates were washed five times with PBS 0.1% Tween20, and stained with 100 μL/well of tetramethyl-benzidine (TMB) substrate (Biosource Europe, Nivelles, Belgium). The reaction was terminated with 50 μL/well of 2 M H2SO4 and substrate conversion was read at 450 nm on a Spectramax340 microplate reader. Curves were fitted with a one-site binding model (GraphPad Prism version 4.02 for Windows, Graphpad Software, Calif., USA) from which Kd and Bmax were determined.
as §2

[8] = target: T1, tPA; assay: tPA ELISA with coated protein therapeutics; type: binding; conditions: ELISA, stored at the recommended temperature of 4° C.
Protocol: as §5

[9] = target: T2, LRP cl-IV binding to BSA-AGE (Bos taurus, UniProt P02769); assay: ELISA, interference with LRP cl-IV binding to BSA-AGE; set-up: species or system human; conditions: concentration series, 50 times diluted LRP cl-IV medium
T2 construct: made in house; host or cells: HEK293E/S (LRP cl-IV, culture supernatant)
T2 sequence (P02769 25-607): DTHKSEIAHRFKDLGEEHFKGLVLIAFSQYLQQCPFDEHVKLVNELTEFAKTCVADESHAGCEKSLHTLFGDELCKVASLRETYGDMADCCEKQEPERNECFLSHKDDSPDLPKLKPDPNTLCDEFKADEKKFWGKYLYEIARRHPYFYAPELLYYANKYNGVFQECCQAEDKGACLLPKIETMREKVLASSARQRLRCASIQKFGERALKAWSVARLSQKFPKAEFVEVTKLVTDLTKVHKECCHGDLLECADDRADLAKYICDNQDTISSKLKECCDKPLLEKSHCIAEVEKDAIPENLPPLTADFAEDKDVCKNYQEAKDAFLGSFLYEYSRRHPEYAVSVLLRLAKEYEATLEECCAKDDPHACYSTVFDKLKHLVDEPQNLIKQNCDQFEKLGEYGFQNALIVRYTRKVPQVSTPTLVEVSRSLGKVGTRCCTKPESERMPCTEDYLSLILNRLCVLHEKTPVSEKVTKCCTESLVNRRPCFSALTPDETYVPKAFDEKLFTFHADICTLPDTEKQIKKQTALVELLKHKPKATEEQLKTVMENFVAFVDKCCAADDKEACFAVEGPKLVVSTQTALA
Protocol: To test whether amyloid-like crossbeta structure binding compounds tPA, Congo red, Thioflavin T and Thioflavin S interfere with LRP cl-IV binding to BSA-AGE, concentration series of the potential inhibitory amyloid binding moieties were tested in the presence of 50 times diluted medium containing LRP cl-IV. The following inhibitors were used: tPA, Congo red, Thioflavin T (ThT) and Thioflavin S (ThS). As a control to tPA, K2P tPA, which lacks the amyloid-like misfolded protein binding finger domain, was included in the analyses. The influence of tPA and K2P tPA was tested in the presence of 10 mM ε-amino caproic acid to avoid binding of the kringle2 domain of tPA and K2P tPA to lysine- and arginine residues. Binding buffer and K2P tPA serve as negative controls in these inhibition studies. The concentration series was measured in triplicate, the values averaged and standard deviations calculated. Background signals obtained with buffer-coated wells were subtracted. Signals obtained with binding of LRP cluster IV to BSA-AGE was set arbitrarily to a reference binding of 100% and signals obtained with the concentration series of misfolded protein binding moieties and K2P tPA were calculated based on this set reference.

[10] = glucagon after heat-denaturation at 37° C. at low pH in HCl buffer

T1 sequence (P00750 36-562): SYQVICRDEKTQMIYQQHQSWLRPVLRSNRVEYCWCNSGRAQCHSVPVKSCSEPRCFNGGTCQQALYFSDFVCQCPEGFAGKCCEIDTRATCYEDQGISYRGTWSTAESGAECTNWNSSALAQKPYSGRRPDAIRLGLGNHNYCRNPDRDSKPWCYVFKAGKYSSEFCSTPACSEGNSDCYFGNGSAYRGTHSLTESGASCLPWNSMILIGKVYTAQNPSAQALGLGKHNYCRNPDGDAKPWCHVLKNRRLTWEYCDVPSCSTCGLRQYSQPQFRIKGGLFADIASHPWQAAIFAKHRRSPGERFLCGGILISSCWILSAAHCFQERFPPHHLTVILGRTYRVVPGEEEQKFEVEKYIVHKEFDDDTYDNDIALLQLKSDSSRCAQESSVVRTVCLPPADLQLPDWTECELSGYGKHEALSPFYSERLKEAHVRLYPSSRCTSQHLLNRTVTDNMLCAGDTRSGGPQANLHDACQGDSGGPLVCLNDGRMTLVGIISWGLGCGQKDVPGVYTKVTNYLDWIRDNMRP

tPA activation Max. Activation [1]	Substance	Fluorescence ThT [2]	amyloid-like properties (ThT-fluorescence and tPA activation) [5]	Fluorescence CR [6]	other results
0%	Etanercept	23 +/− 3 a.u.	amyloid-like properties are adopted		enhancement of ThT fluorescence ([3]; Example 4, native, heat-denatured or alkylated preparation as labelled): some ThT fluorescence enhancement; tPA activating potential [4]: some tPA activation
11.25%	Glucagon: human glucagon (Glucagen, Novo Nordisk)	48 +/− 1 a.u.	amyloid-like properties are adopted		enhancement of ThT fluorescence [3, 10]: enhanced ThT fluorescence to a large extent; tPA activating potential [4]: some tPA activating potential; tPA activation [4, 10]: potent activator of tPA
0%	Infliximab: human-murine chimeric monoclonal antibody (Remicade-infliximab)	19 +/− 1 a.u.	amyloid-like properties are adopted	67 +/− 2 a.u.	
70.93%	Insulin Aspart: rapid acting human insulin analogue (NovoRapid Flexpen, Novo Nordisk)	172 +/− 3 a.u.		81 +/− 2 a.u.	tPA Binding Bmax [7]: 3.617 OD450 nm; tPA activation ([4]; protein solutions stored at 4° C.): activated tPA to a lesser extent, but still significantly
17.44%	Insulin Zn Suspension: recombinant human Zn2+-chelated insulin (Monotard, Novo Nordisk)	387 +/− 72 a.u.		79 +/− 6 a.u.	tPA Binding Bmax [7]: 0.7558 OD450 nm; binding of tPA [8]: binding of tPA was established
	Thioflavin S [ThS]				influence on binding of LRP cl-IV to BSA-AGE [9]: inhibit binding of LRP cl-IV to BSA-AGE to a large extent
	heat/acid-denatured glucagon: glucagon kept at 37° C. in 10 mM HCl				presence of cross-β structure conformation ([3]; conclusion from ThT fluorescence, Plg-activation assay and TEM): comprise the cross-β structure conformation
